Assay results taken from IntAct's records for PubMed 10837255.

B1: Spindle assembly checkpoint serine/threonine-protein kinase BUB1 (Saccharomyces cerevisiae), P41695 (parent)
chain: MNLDLGSTVRGYESDKDTFPQSKGVSSSQKEQHSQLNQTKIAYEQRLLNDLEDMDDPLDLFLDYMIWISTSYIEVDSESGQEVLRSTMERCLIYIQDMETYRNDPRFLKIWIWYINLFLSNNFHESENTFKYMFNKGIGTKLSLFYEEFSKLLENAQFFLEAKVLLELGAENNCRPYNRLLRSLSNYEDRLREMNIVENQNSVPDSRERLKGRLIYRTAPFFIRKFLTSSLMTDDKENRANLNSNVGVGKSAPNVYQDSIVVADFKSETERLNLNSSKQPSNQRLKNGNKKTSIYADQKQSNNPVYKLINTPGRKPERIVFNFNLIYPENDEEFNTEEILAMIKGLYKVQRRGKKHTEDYTSDKNRKKRKLDVLVERRQDLPSSQPPVVPKSTRIEVFKDDDNPSQSTHHKNTQVQVQTTTSILPLKPVVDGNLAHETPVKPSLTSNASRSPTVTAFSKDAINEVFSMFNQHYSTPGALLDGDDTTTSKFNVFENFTQEFTAKNIEDLTEVKDPKQETVSQQTTSTNETNDRYERLSNSSTRPEKADYMTPIKETTETDVVPIIQTPKEQIRTEDKKSGDNTETQTQLTSTTIQSSPFLTQPEPQAEKLLQTAEHSEKSKEHYPTIIPPFTKIKNQPPVIIENPLSNNLRAKFLSEISPPLFQYNTFYNYNQELKMSSLLKKIHRVSRNENKNPIVDFKKTGDLYCIRGELGEGGYATVYLAESSQGHLRALKVEKPASVWEYYIMSQVEFRLRKSTILKSIINASALHLFLDESYLVLNYASQGTVLDLINLQREKAIDGNGIMDEYLCMFITVELMKVLEKIHEVGIIHGDLKPDNCMIRLEKPGEPLGAHYMRNGEDGWENKGIYLIDFGRSFDMTLLPPGTKFKSNWKADQQDCWEMRAGKPWSYEADYYGLAGVIHSMLFGKFIETIQLQNGRCKLKNPFKRYWKKEIWGVIFDLLLNSGQASNQALPMTEKIVEIRNLIESHLEQHAENHLRNVILSIEEELSHFQYKGKPSRRF
partner: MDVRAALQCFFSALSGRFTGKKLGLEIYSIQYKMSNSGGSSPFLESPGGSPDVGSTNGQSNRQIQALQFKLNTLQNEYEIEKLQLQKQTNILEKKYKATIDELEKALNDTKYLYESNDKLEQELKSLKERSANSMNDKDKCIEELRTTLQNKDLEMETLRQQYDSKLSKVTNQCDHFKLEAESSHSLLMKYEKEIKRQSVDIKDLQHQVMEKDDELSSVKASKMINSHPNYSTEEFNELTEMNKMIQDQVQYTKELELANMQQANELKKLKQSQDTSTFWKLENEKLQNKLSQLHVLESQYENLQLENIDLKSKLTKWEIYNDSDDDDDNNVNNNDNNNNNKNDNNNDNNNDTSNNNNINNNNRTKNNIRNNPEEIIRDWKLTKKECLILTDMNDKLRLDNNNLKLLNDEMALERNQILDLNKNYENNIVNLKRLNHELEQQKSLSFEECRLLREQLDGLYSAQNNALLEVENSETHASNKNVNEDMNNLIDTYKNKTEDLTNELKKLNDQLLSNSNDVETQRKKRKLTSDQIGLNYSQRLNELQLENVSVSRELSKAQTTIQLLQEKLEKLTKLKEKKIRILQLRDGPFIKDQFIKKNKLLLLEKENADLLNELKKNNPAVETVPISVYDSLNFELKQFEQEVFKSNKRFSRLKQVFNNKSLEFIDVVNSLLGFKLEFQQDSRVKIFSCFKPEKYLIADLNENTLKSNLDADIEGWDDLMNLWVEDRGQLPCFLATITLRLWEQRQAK

Variants of: B1
Conditions: with mad1_yeast MAD1, P40957

Variant | effect of a mutation on the interaction
K733R | decreasing interaction
